Experimental data from patent publication US11311625B2, “Peptide-based multiple-drug delivery vehicle” (priority 2015, dated 2022).
Like-named read-outs stand apart in the source and are kept apart here.

Legend:
[1] = Chemo-stability and drug release of conjugates 1a-e in buffers at pH 2, 5 and 7.4 (LC-MS); format: physicochemical; details: for half-life at 0.4 mg/ml: buffer
Method: Incubation procedure: Aqueous stability was determined at pH 2.0 (phosphate buffer), 5.0 (citrate buffer) and 7.4 (PBS buffer). 100 μl of the stock solutions were diluted to 2.5 ml with the desired buffer and then incubated at 37° C. During the incubation period (up to 200 hrs.), aliquots were removed at different time intervals, filtered and analyzed by LC-MS.
Chemo-stability. The chemo-stability tests of the conjugates were performed at three different pH values; a physiological pH of 7.4, the slightly acidic pH 5, mimicking the microenvironment in tumors, and the more acidic pH 2.
FIGS. 11A-11J present the results of the chemo-stability and drug release profiles assays, conducted for conjugates 1a-e at pH 2, 5 and 7.4. Degradation of 1a (FIG. 11A), 1b (FIG. 11C), 1c (FIG. 11E), 1d (FIG. 11G), 1e FIG. 11 (FIG. 11I), and the release of the corresponding drugs: CLB (FIG. 11B), CPT (FIG. 11D), AM (FIG. 11F), ABT-751 (FIG. 11H), and COMB (FIG. 11J). Stock solutions were prepared by dissolving 5 mg of the measured conjugate in 0.5 ml DMSO. 100 μl of the stock solution were diluted to 2.5 ml with the relevant buffer and then incubated at 37° C. Along the incubation period, aliquots were taken at the desired time points and analyzed by LC-MS.

[2] = Bio-stability and drug release of conjugates 1a-e in murine liver homogenate (LH); format: in vitro ADME, mouse
Method: Preparation of liver homogenate: Mice were sacrificed by CO2 inhalation euthanasia. The livers were removed, minced, washed three times in cold PBS buffer and homogenized in Tris-HCl buffer, pH 7.4 (wt/3 vol.) by dozen strokes in a Potter-Elvehjem glass tissue grinder. The tissue homogenate was centrifuged at 4° C., 14000 rpm, 20 min. The supernatant was carefully collected (liver homogenate) and used immediately or else stored in liquid nitrogen.
Incubation procedure: Incubations were conducted in a 37° C. incubator with 2 ml homogenate (equivalent to 6 mg total protein of mouse liver homogenate) per incubation tube. The samples were prepared by adding 50 μl of stock solution to the homogenate (homogenate mixture) at the beginning of the incubation period. Aliquots of the homogenate mixture were removed after 10, 30, 60, 90, 120 and 180 min and then immediately quenched with 2.5 volumes of ethanol. The samples were centrifuged at 14000 rpm for 15 min. Supernatants were collected, filtered and analyzed by LC-MS.
FIGS. 12A-12E present the results of the bio-stability and drug release profiles assays conducted for conjugates 1a-e in LH. […] Stock solutions were prepared by dissolving 5 mg of the measured conjugate in 0.5 ml DMSO. 50 μl of the stock solution were diluted with 2 ml of fresh mouse liver homogenate and then the mixture was incubated at 37° C. Aliquots were collected at 10, 30, 60, 90 and 120 min, mixed with 2.5 volumes of ethanol and centrifuged (14,000 rpm, 15 min). The supernatants were collected, filtered and analyzed by LC-MS

[3] = system: HCT 116, H1299, TRAMP C2 and HEK cell lines; experiment: XTT growth inhibition assay, statements over all tested cell lines; format: cell-based, human; details: for cytotoxicity throughout the study: 1-10 μM, 24 and 72 h
Method: (§1) The cytotoxicity of the peptide-drug conjugates was determined by measuring the mitochondrial enzyme activity, using a commercial XTT assay kit. All samples contained DMSO at final concentration <0.05%. Cells were cultured in micro wells at 2-4×10^4 cells/ml and incubated for 24 h or 72 h. After the first incubation period the cultures were washed and then given fresh medium containing different concentrations of the tested substances. At the end of the second incubation, XTT reagent was added and the cells were re-incubated for additional 2-4 h. During that time the absorbencies in the wells were measured with a TECAN Infinite M200 plate reader at both 480 and 680 nm. The difference between these measurements was used for calculating the % Growth Inhibition (GI) in test wells compared to two controls: cells that were exposed to the medium and solvent, and those that were exposed to a solvent-free medium. All the tests were done in quadruplicates. Each experiment was conducted twice.
(§2) In order to compare the cytotoxic effects of the conjugates relative to the free drugs, the in vitro cytotoxic effect of the drug bioconjugates 1a-e was determined on SSTR2 overexpressed HCT 116 human colorectal carcinoma, H1299 human non-small cell lung carcinoma and TRAMP C2 human prostate cancer cell lines. The SSTR2 low-expressed HEK-293 (Human Embryonic Kidney 293) cell line was used as a negative control. The study was elaborated over a concentration range of 1-10 μM.
FIGS. 13A-13D present the results of the XTT growth inhibition assay conducted for conjugates 1a-e. Growth inhibition effect of drug-conjugates versus free drugs was studied on three cell lines with an over-expression of SSTR2 (FIG. 13A. HCT 116; FIG. 13B. H1299; FIG. 13C. TRAMP C2) against the SSTR2 low expression cell line (FIG. 13D) HEK as negative control. All the cell lines were seeded and allowed to adhere in the wells, after which they were treated with the different compounds in increasing concentrations for 24 and 72 hr. After the treatment, growth inhibition was measured using the XTT assay: The culture medium was replaced by a new one, and then the XTT reagent was added. The wells were incubated for 2-4 hrs. after which the optical density (OD) was measured at 480 and 680 nm. Percentage of growth inhibition for each compound was calculated by comparison of the treated culture versus a control culture (free of any compound). The result shown for each concentration point represents the mean±standard error calculated from two different experiments. In each experiment the compounds were tested in quadruplicates.

[4] = system: H1299 human non-small cell lung carcinoma cells; experiment: XTT growth inhibition assay, H1299; format: cell-based; details: 10 μM, incubation of 72 h
Method: as §1, §2
FIGS. 13A-13D present the results of the XTT growth inhibition assay conducted for conjugates 1a-e. […] After the treatment, growth inhibition was measured using the XTT assay: The culture medium was replaced by a new one, and then the XTT reagent was added. The wells were incubated for 2-4 hrs. after which the optical density (OD) was measured at 480 and 680 nm. Percentage of growth inhibition for each compound was calculated by comparison of the treated culture versus a control culture (free of any compound). The result shown for each concentration point represents the mean±standard error calculated from two different experiments. […]

[5] = system: TRAMP C2 prostate cancer cell lines; experiment: XTT growth inhibition assay, TRAMP C2; format: cell-based, human; details: compared with corresponding free drugs
Method: as §1, with “The difference between these measurements was used for calculating the % Growth Inhibition (GI) in test wells compared to two controls: cells that were exposed to the medium and solvent, and those that were exposed to a solvent-free medium. All the tests were done in quadruplicates. Each experiment was conducted twice.” left out
In order to compare the cytotoxic effects of the conjugates relative to the free drugs, the in vitro cytotoxic effect of the drug bioconjugates 1a-e was determined on SSTR2 overexpressed HCT 116 human colorectal carcinoma, H1299 human non-small cell lung carcinoma and TRAMP C2 human prostate cancer cell lines. […]
FIGS. 13A-13D present the results of the XTT growth inhibition assay conducted for conjugates 1a-e. […] After the treatment, growth inhibition was measured using the XTT assay: The culture medium was replaced by a new one, and then the XTT reagent was added. The wells were incubated for 2-4 hrs. after which the optical density (OD) was measured at 480 and 680 nm. […]

[6] = mouse, tissue homogenate, pH 7.4, 37° C., read-out: degradation t1/2 in liver homogenate

## C[C@@H](O)[C@@H]1NC(=O)[C@H](CCCCN)NC(=O)[C@@H](Cc2c[nH]c3ccccc23)NC(=O)[C@H](Cc2c[nH]c3ccccc23)NC(=O)[C@H](Cc2ccccc2)NC(=O)[C@@H](NC(=O)[C@@H](Cc2ccccc2)NC(=O)CCCNC(=O)CCCC(=O)Nc2cc3c4c(cccc4c2)C(=O)N(CCN(C)C)C3=O)CSSCCN(CC(N)=O)C(=O)[C@H](Cc2ccccc2)NC1=O [conjugate 1c]
[1]; pH 2
  half-life at 0.4 mg/ml: 48 h
[1]; pH 5
  half-life at 0.4 mg/ml: 28 h
[1]; pH 7.4
  half-life at 0.4 mg/ml: 103 h

## COc1ccc(S(=O)(=O)Nc2cccnc2Nc2ccc(O)cc2)cc1 [ABT-751, reference compound]
[2]; measured time period
  stability of free drug in liver homogenate: rapid degradation
[1]; buffers, 37° C.
  degradation of free drug: certain degradation behavior
[3]; tested cell lines including HEK
  IC50 values: low μM range
[4]
  cytotoxic effect on H1299: considerable cytotoxic effect

## COc1ccc(/C=C\c2cc(OC)c(OC)c(OC)c2)cc1OC(=O)NCCCC(=O)N[C@H](Cc1ccccc1)C(=O)N[C@H]1CSSCCN(CC(N)=O)C(=O)[C@H](Cc2ccccc2)NC(=O)[C@H]([C@@H](C)O)NC(=O)[C@H](CCCCN)NC(=O)[C@@H](Cc2c[nH]c3ccccc23)NC(=O)[C@H](Cc2c[nH]c3ccccc23)NC(=O)[C@H](Cc2ccccc2)NC1=O [conjugate 1e]
[2]; [6]
  half-life at 0.244 mg/ml: 0.433 h
[1]; acidic media, especially pH 2
  degradation of conjugate in acidic media: degrades rapidly
[1]; pH 2, 37° C., read-out: degradation t1/2
  half-life at 0.4 mg/ml: 0.0667 h
[5]
  cytotoxic effect on TRAMP C2: most potent targeted therapeutic effect
[3]
  cytotoxicity throughout the study: targeted but cell selective cytotoxicity

## CC[C@@]1(OC(=O)NCCCC(=O)N[C@H](Cc2ccccc2)C(=O)N[C@H]2CSSCCN(CC(N)=O)C(=O)[C@H](Cc3ccccc3)NC(=O)[C@H]([C@@H](C)O)NC(=O)[C@H](CCCCN)NC(=O)[C@@H](Cc3c[nH]c4ccccc34)NC(=O)[C@H](Cc3c[nH]c4ccccc34)NC(=O)[C@H](Cc3ccccc3)NC2=O)C(=O)OCc2c1cc1n(c2=O)Cc2cc3ccccc3nc2-1 [conjugate 1b]
[2]; [6]
  half-life: 0.617 h
[3]
  cytotoxicity throughout the study: targeted but cell selective cytotoxicity
[4]
  cytotoxic effect on H1299: most active

## C[C@@H](O)[C@@H]1NC(=O)[C@H](CCCCN)NC(=O)[C@@H](Cc2c[nH]c3ccccc23)NC(=O)[C@H](Cc2c[nH]c3ccccc23)NC(=O)[C@H](Cc2ccccc2)NC(=O)[C@@H](NC(=O)[C@@H](Cc2ccccc2)NC(=O)CCCNC(=O)CCCc2ccc(N(CCCl)CCCl)cc2)CSSCCN(CC(N)=O)C(=O)[C@H](Cc2ccccc2)NC1=O [conjugate 1a]
[2]; mouse, tissue homogenate, 37° C., read-out: degradation t1/2 in liver homogenate
  half-life: 0.95 h
[1]; all tested pH values (pH 2, 5, 7.4), 37° C.
  degradation of conjugate: considerable degradation
[1]; pH 2, 5 and 7.4, 37° C.
  CLB release from conjugate: observed only at acidic pH 2
[1]; pH 2, 37° C., read-out: CLB release t1/2 (converted)
  half-life: 51 h
[3]
  cytotoxicity throughout the study: poorly active
